Assays:
Assay in all cases: ITC
[1] = molecular target: yeast Hsp90 (wild type, His-tagged) (yeast) (UniProt P02829)
[2] = molecular target: yeast Hsp90 M705V (His-tagged) (yeast) (UniProt P02829)
[3] = molecular target: Tah1 (TPR-containing protein associated with Hsp90) (S. cerevisiae) (UniProt P25638)
Chain of Tah1 (TPR-containing protein associated with Hsp90) (S. cerevisiae) (P25638 whole entry): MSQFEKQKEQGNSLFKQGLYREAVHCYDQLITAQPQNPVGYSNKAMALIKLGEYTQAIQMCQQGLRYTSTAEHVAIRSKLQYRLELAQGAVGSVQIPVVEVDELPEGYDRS

Chain of mouse CHIP (C-terminal of Hsp70-interacting protein) (Q9WUD1 whole entry): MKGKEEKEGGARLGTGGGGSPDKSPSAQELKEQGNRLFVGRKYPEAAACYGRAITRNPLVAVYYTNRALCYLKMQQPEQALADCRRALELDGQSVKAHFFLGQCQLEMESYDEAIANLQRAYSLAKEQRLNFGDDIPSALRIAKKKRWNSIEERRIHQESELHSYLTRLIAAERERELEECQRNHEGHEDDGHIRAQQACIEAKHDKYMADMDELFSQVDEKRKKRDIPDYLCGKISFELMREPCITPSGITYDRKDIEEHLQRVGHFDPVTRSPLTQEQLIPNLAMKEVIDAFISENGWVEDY
Chain of C-terminal domain of Sti1 (cSti1), His-tagged (domain or fragment) (P15705 133-581): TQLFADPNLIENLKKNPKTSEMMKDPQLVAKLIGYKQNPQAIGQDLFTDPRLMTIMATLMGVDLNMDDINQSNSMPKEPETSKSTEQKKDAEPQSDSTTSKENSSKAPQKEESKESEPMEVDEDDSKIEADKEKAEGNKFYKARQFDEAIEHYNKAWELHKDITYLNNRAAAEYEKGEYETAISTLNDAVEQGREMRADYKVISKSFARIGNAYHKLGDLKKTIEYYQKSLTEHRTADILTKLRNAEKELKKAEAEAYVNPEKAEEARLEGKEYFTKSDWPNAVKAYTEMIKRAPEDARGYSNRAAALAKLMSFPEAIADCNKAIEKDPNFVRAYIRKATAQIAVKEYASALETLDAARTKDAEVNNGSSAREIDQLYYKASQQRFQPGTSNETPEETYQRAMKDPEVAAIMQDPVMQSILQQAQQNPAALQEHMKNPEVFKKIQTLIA

Row | Substance | stoichiometry N [1] | Kd [2] [µM] | stoichiometry N [2] | Kd [3] [µM] | stoichiometry N [3]
1 | C-terminal domain of Sti1 (cSti1), His-tagged (domain or fragment) | 0.88 | – | – | – | –
2 | mouse CHIP (C-terminal of Hsp70-interacting protein) (from UniProt Q9WUD1 1-304) (natural protein) | 1.2 | 6.7 | 1.1 | – | –
3 | … decapeptide (Ssa1 C-terminal decapeptide, Val at -4 replaced by Ala) | – | – | – | 14.8 | 1.1
4 | … decapeptide (Ssa1 C-terminal decapeptide, Val at -4 replaced by Met) | – | – | – | 4.2 | 0.98
5 | … decapeptide (yeast Hsp90 C-terminal decapeptide, Met at -4 replaced by Ala) | – | – | – | 3.3 | 0.89
6 | … decapeptide (yeast Hsp90 C-terminal decapeptide, Met at -4 replaced by Val) | – | – | – | 9.8 | 1.1
7 | … decapeptide (yeast Hsp90 C-terminal decapeptide, TE replaced by Ala-Ala) | – | – | – | 0.75 | 0.81

— PMC2865030
